The source of these data is US20130190228A1.

This experiment concerns the target hemagglutinin (HA) of A/PuertoRico/8/34 (PR/8, H1N1) influenza virus (influenza A virus A/PuertoRico/8/34 (H1N1)) (UniProt P03452). Put plainly: cell-based or functional assay.

EB peptide (entry blocker): the EC50 of hemagglutination inhibition (PR/8) was 2000 nM; the EC50 of hemagglutination inhibition (PR/8, 64 HAU) was found to be 2600 nM; the plaque reduction on MDCK cells (PR/8 pre-treated with peptide) worked out at 92%.
